In this experiment the target is NSTTR, artificially mutated variant of TTR carrying the double mutation N99R/S100R. Briefly: SEC-MALS. A general note: Size exclusion chromatography separates by hydrodynamic size, large species first.

As a reminder, the stoichiometry N is a count of units in the complex or per binding partner. “NSTTR, artificially mutated variant of TTR carrying the double mutation N99R/S100R (natural protein)” returned a stoichiometry N of 4.

Source of the values: article doi:10.1101/852715.
